Measured values published in US20160237162A1.

How the values were obtained:
[1] = molecular target: human HER3 on human cancer cells (human) (UniProt P21860)
[2] = molecular target: human HER3 on human cancer cells (human) (UniProt P21860); remark: listed apart in the source
[3] = molecular target: human HER3 on human cancer cells (human) (UniProt P21860); remark: listed apart in the source
[4] = molecular target: human HER3 on human cancer cells (human) (UniProt P21860); remark: listed apart in the source
[5] = molecular target: human HER3 on human cancer cells (human) (UniProt P21860); remark: listed apart in the source
[6] = molecular target: human HER3 on human cancer cells (human) (UniProt P21860); remark: listed apart in the source
[7] = molecular target: human HER3 on human cancer cells (human) (UniProt P21860); remark: listed apart in the source
[8] = molecular target: human HER3 on human cancer cells (human) (UniProt P21860); remark: listed apart in the source
[9] = molecular target: human HER3 on human cancer cells (human) (UniProt P21860); remark: listed apart in the source
[10] = molecular target: human HER3 on human cancer cells (human) (UniProt P21860); remark: listed apart in the source
[11] = molecular target: human HER3 on human cancer cells (human) (UniProt P21860); remark: listed apart in the source
[12] = molecular target: human HER3 on human cancer cells (human) (UniProt P21860); assay: cell-based or functional assay

IC50; suppression of pHER3 (pHER3 ELISA), HCC827 cells [1]: 23 ng/ml
Maximum inhibition %; suppression of pHER3 (pHER3 ELISA), HCC827 cells [1]: 41%
IC50; suppression of pHER3 (pHER3 ELISA), BT-474 cells [2]: > 10 µg/ml
IC50; suppression of pAKT (Meso-Scale Discovery assay), MKN45 cells [3]: 15.8 ng/ml
Maximum inhibition %; suppression of pAKT (Meso-Scale Discovery assay), MKN45 cells [3]: 38%
IC50; suppression of pAKT (Meso-Scale Discovery assay), Kato III cells [4]: 6.2 ng/ml
Maximum inhibition %; suppression of pAKT (Meso-Scale Discovery assay), Kato III cells [4]: 22%
IC50; suppression of pHER3 (pHER3 ELISA), Kato III cells [5]: 9.6 ng/ml
Maximum inhibition %; suppression of pHER3 (pHER3 ELISA), Kato III cells [5]: 62%
IC50; suppression of HRG-induced pHER3 (pHER3 ELISA), MCF-7 cells [6]: 33 ng/ml
Maximum inhibition %; suppression of HRG-induced pHER3 (pHER3 ELISA), MCF-7 cells [6]: 77%
IC50; growth suppression (CellTiter-Glo, 6 days), HMCB melanoma cells [7]: 1.73 µg/mL
IC50; suppression of pAKT (Meso-Scale Discovery assay), BT-474 cells [8]: > 10 µg/ml
Max inhibition%; suppression of pAKT (Meso-Scale Discovery assay), BT-474 cells [8]: 1%
IC50; suppression of pHER3 (pHER3 ELISA), MKN45 cells [9]: 16.1 ng/ml
Maximum inhibition %; suppression of pHER3 (pHER3 ELISA), MKN45 cells [9]: 58%
IC50; suppression of pHER3 (pHER3 ELISA), EGFR-TKI (gefitinib)-resistant HCC827 cells [10]: 31 ng/ml
Maximum inhibition %; suppression of pHER3 (pHER3 ELISA), EGFR-TKI (gefitinib)-resistant HCC827 cells [10]: 24%
IC50; growth suppression (CellTiter-Glo, 6 days), MDA-MB-175 cells [11]: 0.99 µg/mL
Maximum inhibition %; growth suppression (CellTiter-Glo, 6 days), MDA-MB-175 cells [11]: 39%
fold decrease in pHER3 ELISA in HCC827 cells; potency against 2C2 [12]: 10 fold
pHER3 ELISA in Kato III cells, maximal pHER3 suppression [12]: 60%
Substance: AMG anti-HER3 monoclonal antibody (U1-59)
